# Data published in patent US20090162360A1.
# Target: recombinant human IGF-1R on I24 cells (human) (UniProt P08069)
# Experiment: cellular FACS IGF-1R-ANGPT2 bridging assay: I24 cells + hIgG isotype, then 2 µg/mL hANGPT2, <ANGPT2>mIgG1-Biotin and Streptavidin-PE; negative control; untreated I24 cells (panel A): Mean 5.01
substance,measurement,value
hIgG Isotype (antibody),Mean (FL2-H fluorescence),8.76
